Consider one molecule from publication PMC8591454 (Frontiers in Microbiology, 2021).

The target in this experiment is T1, truncated capsid protein sar239 from genotype 1 HEV Sar55 strain (hepatitis E virus genotype 1, strain …, UniProt P33426 368-606).
T1 sequence: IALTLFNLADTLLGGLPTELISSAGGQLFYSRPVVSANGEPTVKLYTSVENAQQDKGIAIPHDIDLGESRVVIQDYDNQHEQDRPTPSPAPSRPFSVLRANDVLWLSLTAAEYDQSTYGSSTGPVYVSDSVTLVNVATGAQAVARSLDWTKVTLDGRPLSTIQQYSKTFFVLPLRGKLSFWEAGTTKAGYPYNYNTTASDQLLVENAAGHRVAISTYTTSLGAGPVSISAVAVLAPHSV
Kind of experiment: ELISA. As to conditions: both partners purified. On the technique in general: ELISA stands for enzyme-linked immunosorbent assay.

B1: His-tagged cell division control protein 42 (CDC42-His) (natural protein)
chain: not shown
notes: also called recombinant CDC42-His protein
Regarding B1, the binding result was “binds”.
